Data taken from patent US20090118195A1, “Molecules Which Promote Hematopoiesis” (priority 2004, published 2009).
*1 amine or outer side, *2 acyl side, *3 side chain or, on linkers, in order; H or OH if unused. Primed or numbered codes have the meaning given here. Where no end group is shown, it is not given here. [ ]: non-standard residue; d: D form. Als″ = residue of 5-aminolevulinic acid, O=C(CCC(=O)[*:2])CN[*:1]

Each molecule was assayed on TF-1 cells (assay: Proliferation assay with TF-1 cells by MTT (monomers)). Details: MTT-assay data, dose-response calculated with GraphPad.
Type: cell-based
Description: Proliferation assay with TF-1 cells by MTT
TF-1 Cells in logarithmic growth phase (˜2.10^5-1.10^6 cells/ml; RPMI medium; 20% fetal calf serum; supplemented with Penicillin, streptomycin, L-Glutamine; 0.5 ng/ml Interleukin 3) are washed (centrifuge 5 min. 1500 rpm and resuspend in RPMI complete without IL3 at 500.000 cells/ml) and precultured before start of the assay for 24 h without IL-3. At the next day the cells are seeded in 24- or 96-well plates usually using at least 6 concentrations and 4 wells per concentration containing at least 10.000 cells/well per agent to be tested. Each experiment includes controls comprising recombinant EPO as a positive control agent and wells without addition of cytokine as negative control agent. Peptides and EPO-controls are prediluted in medium to the desired concentrations and added to the cells, starting a culture period of […] under standard culture conditions (37° C., 5% carbon dioxide in the gas phase, atmosphere saturated with water). Concentrations always refer to the final concentration of agent in the well during this 4-day culture period.
At day 4, prior to start of the analysis, a dilution series of a known number of TF-1 cells is prepared in a number of wells (01250015000/10000120000150000 cells/well in 100 μl medium). These wells are treated in the same way as the test wells and later provide a calibration curve from which cell numbers can be determined. Having set up these reference wells, MTS and PMS from the MTT proliferation kit (Promega, CellTiter 96 Aqueous non-radioactive cell proliferation assay) are thawed in a 37° C. waterbath and 100 μl of PMS solution are added to 2 ml of MTS solution. 20 μl of this mixture are added to each well of the assay plates and incubated at 37° C. for 3-4 h. 25 μl of 10% sodium dodecylsulfate in water are added to each well prior to measurement E492 in an ELISA Reader.
Using graphical evaluations as shown in FIGS. 17 and 18 based on calculations of the dose-response relationship using the program GraphPad the following EC50 values were determined on the basis of MTT-assay data: […]

Question: Which EC50 does the source give for GGTYSCHF-(Als)-LTWVCKKQGG [SEQ ID NO 8] here?
Answer: 5 µM

Question: Which EC50 does the source give for GGTYSCHF-(Als)-LTWVCKPQGG [SEQ ID NO 7] here?
Answer: 5.26 µM

Question: For GGTYSCHFGGLTWVCKPQGG, which EC50 values is on record?
Answer: no activity

The molecules below were run against T1, EPO receptor (on TF-1 cells) (UniProt P19235 25-508, limits assumed) (assay: cell-based or functional assay). Details: not given.
T1 sequence (looked up): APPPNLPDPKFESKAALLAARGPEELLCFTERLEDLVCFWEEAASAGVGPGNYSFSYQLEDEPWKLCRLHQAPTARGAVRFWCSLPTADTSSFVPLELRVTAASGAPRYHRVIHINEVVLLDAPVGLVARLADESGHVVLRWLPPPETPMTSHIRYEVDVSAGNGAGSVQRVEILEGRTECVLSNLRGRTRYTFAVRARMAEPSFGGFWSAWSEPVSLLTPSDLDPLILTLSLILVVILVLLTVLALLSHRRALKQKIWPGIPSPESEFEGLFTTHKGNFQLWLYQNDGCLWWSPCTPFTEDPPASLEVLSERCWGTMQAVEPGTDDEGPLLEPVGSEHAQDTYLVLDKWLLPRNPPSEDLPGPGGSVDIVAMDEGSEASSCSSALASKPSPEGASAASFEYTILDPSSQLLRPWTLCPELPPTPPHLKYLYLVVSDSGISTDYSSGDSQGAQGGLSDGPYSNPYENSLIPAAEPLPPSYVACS

Question: GGTYSCHFGKLTWVCKKQGG [SEQ ID NO 2: GGTYSCHFGKLTWVCKKQGG] was tested. Which “EC50, TF-1 cell proliferation (MTT assay)” value (“EC50 … (MTT assay)” for short) did it give?
Answer: 3.28 µM

Question: Which “EC50 … (MTT assay)” value does the source give for GGTYSCHFGKLTWVCKPQGG [SEQ ID NO 4: GGTYSCHFGKLTWVCKPQGG] here?
Answer: 4.66 µM

Question: For GGTYSCHFGRLTWVCKPQGG [SEQ ID NO 5: GGTYSCHFGRLTWVCKPQGG], which “EC50 … (MTT assay)” value is on record?
Answer: 5.16 µM

Question: How did the “EC50 … (MTT assay)” value turn out when GGTYSCHFGRLTWVCKKQGG [SEQ ID NO 6: GGTYSCHFGRLTWVCKKQGG] was run?
Answer: 4.97 µM

Question: GGTYSCHF[Als″]LTWVCKPQGG (cysteine pairing not given here) [SEQ ID NO 7: GGTYSCHF-(Als)-LTWVCKPQGG] was tested. Which “EC50 … (MTT assay)” value did it give?
Answer: 5.26 µM

Question: With GGTYSCHF[Als″]LTWVCKKQGG (cysteine pairing not given here) [SEQ ID NO 8: GGTYSCHF-(Als)-LTWVCKKQGG] as the molecule, how does the “EC50 … (MTT assay)” value read?
Answer: 5 µM

Question: Which “EC50 … (MTT assay)” value does the source give for GGTYSCHFGPLTWVCKKQGG here?
Answer: 2.52 µM

Question: How did the “EC50 … (MTT assay)” value turn out when GGTYSCHFAKLTWVCKKQGG was run?
Answer: 5.04 µM
